Test results reported in paper doi:10.1101/2020.11.19.389874.

What was measured:
[1] = molecular target: Urn8RA (Urinate Receptor isoform RA) expressed in CHO/G16 cells (Tribolium castaneum)
[2] = molecular target: Urn8RB (Urinate Receptor isoform RB) expressed in CHO/G16 cells (Tribolium castaneum)

Substance | bioluminescence response of CHO/G16 cells expressing Urn8RA, dose-response, EC50 [1] | bioluminescence response of CHO/G16 cells expressing Urn8RB, dose-response, EC50 [2]
Tribolium castaneum diuretic hormone 37 (DH37), unlabeled (peptide) | 160 nM | 450 nM
Tribolium castaneum diuretic hormone 47 (DH47), unlabeled (peptide) | 380 nM | 340 nM
